Measurements reported in paper PMC9580340.

Target: soluble dimeric human ACE2, Fc-tagged, biotinylated (ACRO Biosystems AC2-H82F9) (human) (UniProt Q9BYF1)
Experiment: SPR

Substance: SARS-CoV-2 WA-1 S2P spike trimer (binding studies) (domain or fragment)
- Kd: 1.1 nM

Substance: SARS-CoV-2 B.1.1.529 S2P spike trimer (binding studies) (domain or fragment)
- Kd: 0.59 to 3.8 nM

Substance: SARS-CoV-2 D614G S2P spike trimer (binding studies) (domain or fragment)
- Kd: 0.73 nM
